Results reported in patent US20160280766A1 (UNIVERSITY OF MARYLAND BALTIMORE, published 2016).
Changes are numbered by the printed parent chain. Numbers in names are those of the source.

T1: FcγRIIB (human, UniProt P31994 43-217, limits assumed)
T1 construct: also called CD32; not shown: His-tag fused to the C-terminus
T1 sequence (looked up): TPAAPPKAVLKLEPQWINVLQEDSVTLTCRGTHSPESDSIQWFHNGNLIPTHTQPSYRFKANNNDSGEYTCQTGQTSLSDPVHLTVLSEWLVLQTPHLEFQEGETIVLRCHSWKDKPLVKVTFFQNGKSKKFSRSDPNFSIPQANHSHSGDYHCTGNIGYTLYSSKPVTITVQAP

T2: FcγRIIA (human, UniProt P12318 34-217, limits assumed)
T2 construct: also called CD32; not shown: His-tag fused to the C-terminus
T2 sequence (looked up): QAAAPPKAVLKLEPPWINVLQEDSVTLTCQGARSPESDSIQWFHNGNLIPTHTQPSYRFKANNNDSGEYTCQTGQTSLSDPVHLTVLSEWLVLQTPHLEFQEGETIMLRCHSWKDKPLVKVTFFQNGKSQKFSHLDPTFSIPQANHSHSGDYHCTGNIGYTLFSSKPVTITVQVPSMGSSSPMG

B1: Fc-226^hg/290^hg/E333A/K334A (other)
chain: EPKSCDKTHTNSTCPAPELLGGPSVFLFPPKPKDTLMISRTPEVTCVVVDVSHEDPEVKFNWYVDGVEVHNAKTNSTEEQYNSTYRVVSVLTVLHQDWLNGKEYKCKVSNKALPAPIAATISKAKGQPREPQVYTLPPSREEMTKNQVSLTCLVKGFYPSDIAVEWESNGQPENNYKTTPPVLDSDGSFFLYSKLTVDKSRWQQGNVFSCSVMHEALHNHYTQKSLSLSPGK
modifications: N-linked glycans at Asn297 and at engineered Asn226 and Asn290 (IgG1 heavy chain positions)
B2: IgG1 Fc variant Fc-226^hg/290^hg (other)
chain: B1 chain with A118E, A119K
modifications: N-linked glycans at Asn297 and at engineered Asn226 and Asn290 (IgG1 heavy chain positions)
notes: Both CPP (226-228) and KPR (290-292) replaced by NST
B3: IgG1 Fc variant Fc-226^hg/290^hg/S298A (other)
chain: B1 chain with S83A, A118E, A119K
modifications: N-linked glycans at Asn297 and at engineered Asn226 and Asn290 (IgG1 heavy chain positions)
B4: IgG1 Fc variant Fc-226^hg/290^hg/S298A/E333A/K334A (other)
chain: B1 chain with S83A
modifications: N-linked glycans at Asn297 and at engineered Asn226 and Asn290 (IgG1 heavy chain positions)
B5: Fc-S298A/E333A/K334A (other)
chain: B1 chain with N11C, S12P, T13P, N75K, S76P, T77R, S83A
modifications: N-linked glycan at Asn297
B6: IgG1 Fc variant Fc-290^hg (other)
chain: B1 chain with N11C, S12P, T13P, A118E, A119K
modifications: N-linked glycans at Asn297 and at engineered Asn290 (IgG1 heavy chain positions)
notes: KPR at 290-292 replaced by NST

Each binder was assayed against T1, FcγRIIB (assay: ratio of SPR KDs, reference Fc-WT).

Q: How did the “fold decrease in binding (Fc-variant KD/Fc-WT KD)” value (“fold decrease in binding” below) turn out when B1 was run?
A: 12.2 fold

Q: How did the “fold decrease in binding” value turn out when B2 was run?
A: 30.1 fold

Q: With B3 as the binder, how does the “fold decrease in binding” value read?
A: 60.9 fold

Q: For B4, which “fold decrease in binding” value is on record?
A: 37.8 fold

What follows are binders tested against T3, FcγRIIIA having a Val residue at polymorphic site 158 (human, UniProt P08637 17-208) (assay: ratio of SPR KDs, reference Fc-WT).
T3 construct: also called FcγRIIIA-158V; CD16a; not shown: His-tag fused to the C-terminus
T3 sequence (P08637 17-208 F176V): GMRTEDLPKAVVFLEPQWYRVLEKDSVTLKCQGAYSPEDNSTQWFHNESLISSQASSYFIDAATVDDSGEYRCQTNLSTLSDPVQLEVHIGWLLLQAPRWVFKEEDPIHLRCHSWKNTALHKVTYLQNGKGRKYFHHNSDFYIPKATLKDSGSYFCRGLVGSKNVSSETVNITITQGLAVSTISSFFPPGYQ

Q: How did the “fold decrease in binding” value turn out when B1 was run?
A: 17.8 fold

Q: For B2, which “fold decrease in binding” value is on record?
A: 8.6 fold

Q: For B3, which “fold decrease in binding” value is on record?
A: 6.3 fold

Q: Which “fold decrease in binding” value does the source give for B4 here?
A: 4.8 fold

These binders were tested against T4, FcγRIIIA having a Phe residue at polymorphic site 158 (human, UniProt P08637 17-208, limits assumed) (assay: ratio of SPR KDs, reference Fc-WT).
T4 construct: also called FcγRIIIA-158F; CD16a; not shown: His-tag fused to the C-terminus
T4 sequence (P08637 17-208 limits assumed): as the sequence (P08637 17-208 F176V) above, with V160F counted along it

Q: How did the “fold decrease in binding” value turn out when B1 was run?
A: 11.8 fold

Q: With B2 as the binder, how does the “fold decrease in binding” value read?
A: 12.4 fold

Q: For B3, which “fold decrease in binding” value is on record?
A: 6.9 fold

Q: Which “fold decrease in binding” value does the source give for B4 here?
A: 3.9 fold

The binders below were run against T2, FcγRIIA (assay: ratio of SPR KDs, reference Fc-WT).

Q: How did the “fold decrease in binding” value turn out when B1 was run?
A: 11.2 fold

Q: How did the “fold decrease in binding” value turn out when B2 was run?
A: 7.6 fold

Q: How did the “fold decrease in binding” value turn out when B3 was run?
A: 10.7 fold

Q: With B4 as the binder, how does the “fold decrease in binding” value read?
A: 10.7 fold

Each binder was assayed against T1, FcγRIIB (assay: SPR, Fc captured on Protein A, receptor injected; steady-state analysis).

Q: With B1 as the binder, how does the Kd read?
A: 20800 nM

Q: With B5 as the binder, how does the Kd read?
A: 7100 nM

Q: With B2 as the binder, how does the Kd read?
A: 51200 nM

Q: For B3, which Kd is on record?
A: 104000 nM

Q: With B4 as the binder, how does the Kd read?
A: 64200 nM

Q: How did the Kd turn out when B6 was run?
A: 18800 nM

Each binder was assayed against T4, FcγRIIIA having a Phe residue at … in the same assay as above.

Q: With B1 as the binder, how does the Kd read?
A: 151 nM

Q: How did the Kd turn out when B2 was run?
A: 160 nM

Q: Which Kd does the source give for B3 here?
A: 87.8 nM

Q: How did the Kd turn out when B4 was run?
A: 50.1 nM

Q: With B6 as the binder, how does the Kd read?
A: 66.1 nM

What follows are binders tested against T2, FcγRIIA in the same assay as above.

Q: For B1, which Kd is on record?
A: 13400 nM

Q: For B2, which Kd is on record?
A: 9100 nM

Q: With B3 as the binder, how does the Kd read?
A: 12800 nM

Q: For B4, which Kd is on record?
A: 12800 nM

The binders below were run against T3, FcγRIIIA having a Val residue at … (assay: SPR, Fc captured on Protein A, receptor injected; 1:1 Langmuir kinetic fit).
Procedure: All experiments were performed using a Biacore T100 instrument (GE Healthcare). Protein A (Sigma-Aldrich) (0.1 mg/mL, 10 mM sodium acetate, pH 4.5) was immobilized at a density of 1000 response units (RU) in flow cells 1 and 2 of a CM5 sensor chip via standard amine-coupling procedure according to the manufacturer's instructions (GE Healthcare), using HBS-X buffer (10 mM HEPES, 150 mM NaCl, 0.05% Tween 20) as the running buffer and a flow rate of […]. Flow cell 1 was used as negative control, while flow cell 2 was used to capture wild type or hyper-glycosylated Fc variants in PBS at a density of 100-150 RU. […] Between experiments, the sensor chip surface was regenerated by 2 injections of 15 μL each of 20 mM HCl. Experimental data were corrected for instrument and bulk artifacts by referencing to a control sensor chip surface using Biacore T100 evaluation software 2.0.3 (GE Healthcare). Kinetic parameters of binding were determined using the same software and a 1:1 Langmuir binding model for all FcγRIIIA-158V interactions.

Q: B1 was tested. Which Kd did it give?
A: 57 nM

Q: Which Kd does the source give for B5 here?
A: 2.1 nM

Q: With B2 as the binder, how does the Kd read?
A: 27.5 nM

Q: B3 was tested. Which Kd did it give?
A: 20.2 nM

Q: For B4, which Kd is on record?
A: 15.5 nM

Q: B6 was tested. Which Kd did it give?
A: 20.8 nM
